Source: US20240269303A1, “CELL TARGETING CONSTRUCTS AND USES THEREOF” (Research Development Foundation, priority 2022, published 2024)
Numbering of substitutions follows the chain as printed. Numbers in names are those of the source. Where two headings read alike, the source gives them in different places.

Legend:
OVCAR8/LGR5 cells = experiment: Growth rate inhibition assay (CCK8, 120 h exposure); assay type: cell-based, human
[1] = Plasma pharmacokinetics after IV injection (ELISA)
[2] = Stability of FcST4-MMAE (storage, low pH, freeze and thaw); assay type: physicochemical
Procedure: Based on the hypothesis that RSPO1 could be used to target cytotoxic drugs selectively to CSC, a compound that contained 2 binding domains and armed this with the cytotoxin monomethylaurostatin (R1FF-MMAE) was generated. Since affinity of a ligand can be affected by the number of binding sites, tests were performed to see if the potency of R1FF-MMAE could be further enhanced by increasing the number of binding domains. A vector capable of expressing a protein containing 4 modified binding domains was constructed, and the FcST4-His protein was successfully produced in transiently transfected HEK293E cells and purified using nickel and ion exchange resins. Following attaching MMAE to the polypeptide using the sortase reaction, this drug (FcST4-MMAE) was characterized using gel electrophoresis, HPLC analysis on ion exchange and size exclusion columns, Western blot, and cytotoxicity testing.
To assess the stability of the FcST4-MMAE molecule, the sample was subjected to multiple freeze and thaw cycles.

[3] = tested on: HEK293e empty vector cells versus cells overexpressing LGR5 receptors; experiment: FcST4-MMAE cytotoxicity assay (CCK8, day 6); assay type: cell-based, human; conditions: batches 2-6
[4] = tested on: OVCAR8 cells expressing empty vector versus cells overexpressing LGR5 receptors; experiment: FcST4-MMAE cytotoxicity assay; assay type: cell-based, human
[5] = OVCAR8/EV vs OVCAR8/LGR5, 120 h, Fu1/Fu2 binding-disabling mutation study
[6] = OVCAR8/EV and OVCAR8/LGR5, proteins produced in ExpiCHO

B1: FcF2-Q71R-MMAE (conjugate)
chain: EPKSCDKTHTCPPCPAPELLGGPSVFLFPPKPKDTLMISRTPEVTCVVVDVSHEDPEVKFNWYVDGVEVHNAKTKPREEQYNSTYRVVSVLTVDHHDWLNGKEYKCKVSNKALPAPIEKTISKAKGQPREPQVYTLPPSRDELTKNQVSLTCLVKGFYPSDIAVEWESNGQPENNYKTTPPVLDSDGSFFLYSKLTVDKSRWQQGNVFSCSVMHEALHSHYTQKSLSLSPGKGGGGSGGGGSSRGIKGKRQRRISAEGSQACAKGCELCSEVNGCLKCSPKLFILLERNDIRRVGVCLPSCPPGYFDARNPDMNKCIKCKIEHCEACFSHNFCTKCKEGLYLHKGRCYPACPEGSSAANGTMECSSPGGGGSGGGGSLPETGGG
modifications: non-natural residues
IC50 ratio (OVCAR8/LGR5 cells; [5]): 5.1

B2: FcF2-F106R-F110R-MMAE (conjugate)
chain: B1 chain with R293Q, F328R, F332R
modifications: non-natural residues
IC50 ratio (OVCAR8/LGR5 cells; [5]): 2.1

B3: FcF2-R28A-MMAE: FcF2-MMAE with R28A substitution in the Fu1-Fu2 region (SEQ ID NO: 98) (conjugate)
chain: B1 chain with R250A, R293Q
modifications: non-natural residues
potency and selectivity for LGR5-rich cells compared with FcF2-MMAE (WT) (OVCAR8/LGR5 cells): neither the R28A nor the R30A mutation altered potency of selectivity | increase of AUC0-120 versus FcF2-MMAE (WT) ([1]; IV injection): 3.4 fold | initial half-life versus FcF2-MMAE (WT) ([1]; IV injection): prolonged the initial half-life | plasma concentration higher than that of FcF2-MMAE ([1]; early phase of the plasma decay curve): > 2 orders of magnitude

B4: FcF-Q71R-F106R-F110R-MMAE (conjugate)
chain: B1 chain with F328R, F332R
modifications: non-natural residues
IC50 ratio (OVCAR8/LGR5 cells; [5]): selectivity was abolished

B5: FcF2-R30A-MMAE: FcF2-MMAE with R30A substitution in the Fu1-Fu2 region (SEQ ID NO: 102) (conjugate)
chain: B1 chain with R252A, R293Q
modifications: non-natural residues
potency and selectivity for LGR5-rich cells compared with FcF2-MMAE (WT) (OVCAR8/LGR5 cells): neither the R28A nor the R30A mutation altered potency of selectivity

B6: FcST4-MMAE: Mutated Fc with two receptor binding domains (ST) in series per chain (4 in dimer), sortase-conjugated to MMAE (conjugate)
chain: EPKSCDKTHTCPPCPAPELLGGPSVFLFPPKPKDTLMISRTPEVTCVVVDVSHEDPEVKFNWYVDGVEVHNAKTKPREEQYNSTYRVVSVLTVDHHDWLNGKEYKCKVSNKALPAPIEKTISKAKGQPREPQVYTLPPSRDELTKNQVSLTCLVKGFYPSDIAVEWESNGQPENNYKTTPPVLDSDGSFFLYSKLTVDKSRWQQGNVFSCSVMHEALHSHYTQKSLSLSPGKGGGGSGGGGSSRGIKGKRQRRISAEGSQACAKGCELCSEVNGCLKCSPKLFILLERNDIRQVGVCLPSCPPGYFDARNPDMNKCIKCKIEHCEACFSHNFCTKCKEGLYLHKGRCYPACPEGSSAANGTMECSSPGGGGSGGGGSSRGIKGKRQRRISAEGSQACAKGCELCSEVNGCLKCSPKLFILLERNDIRQVGVCLPSCPPGYFDARNPDMNKCIKCKIEHCEACFSHNFCTKCKEGLYLHKGRCYPACPEGSSAANGTMECSSPGGGGSGGGGSLPETGGG
modifications: non-natural residues
stability to freeze and thaw cycles (SEC130 trace) ([2]; 4 cycles): no significant change in the SEC130 trace | stability ([2]; at 4° C.): remarkably stable | stability ([2]; low pH of 3.0): remarkably stable | difference in targeted killing, empty vector vs LGR5-overexpressing cells [3]: not statistically significant | difference in targeted killing, empty vector vs LGR5-overexpressing cells ([4]; OVCAR8): not statistically significant | effect of increase in binding domains on potency ([4]; cytotoxicity testing): did not enhance potency

B7: FcF2-PNU159682: FcF2-His conjugated with PNU159682, an anthracycline derivative, using sortase A (conjugate)
chain: EPKSCDKTHTCPPCPAPELLGGPSVFLFPPKPKDTLMISRTPEVTCVVVDVSHEDPEVKFNWYVDGVEVHNAKTKPREEQYNSTYRVVSVLTVDHHDWLNGKEYKCKVSNKALPAPIEKTISKAKGQPREPQVYTLPPSRDELTKNQVSLTCLVKGFYPSDIAVEWESNGQPENNYKTTPPVLDSDGSFFLYSKLTVDKSRWQQGNVFSCSVMHEALHSHYTQKSLSLSPGKGGGGSGGGGSSRGIKGKRQRRISAEGSQACAKGCELCSEVNGCLKCSPKLFILLERNDIRQVGVCLPSCPPGYFDARNPDMNKCIKCKIEHCEACFSHNFCTKCKEGLYLHKGRCYPACPEGSSAANGTMECSSPGGGGSGGGGSLPET
modifications: cyclised or stapled
IC50 ratio (OVCAR8/LGR5 cells): approximately 10

B8: FcF2Δlinker-MMAE (conjugate)
chain: EPKSCDKTHTCPPCPAPELLGGPSVFLFPPKPKDTLMISRTPEVTCVVVDVSHEDPEVKFNWYVDGVEVHNAKTKPREEQYNSTYRVVSVLTVDHHDWLNGKEYKCKVSNKALPAPIEKTISKAKGQPREPQVYTLPPSRDELTKNQVSLTCLVKGFYPSDIAVEWESNGQPENNYKTTPPVLDSDGSFFLYSKLTVDKSRWQQGNVFSCSVMHEALHSHYTQKSLSLSPGKSRGIKGKRQRRISAEGSQACAKGCELCSEVNGCLKCSPKLFILLERNDIRQVGVCLPSCPPGYFDARNPDMNKCIKCKIEHCEACFSHNFCTKCKEGLYLHKGRCYPACPEGSSAANGTMECSSPLPETGGG
modifications: non-natural residues
IC50 values or degree of selectivity compared with FcF2-MMAE (OVCAR8/LGR5 cells; [6]): no clear differences in IC50 values or degree of selectivity | potency compared with FcF2-MMAE (OVCAR8/LGR5 cells; [6]): appeared to be less potent against both LGR5-poor and LGR5-rich cells
